In patent US20230194525A1, “PEPTIDE BASED PROBES FOR THE DETECTION OF SARS-COV-2” (priority 2021, published 2023):
The star is where a group is joined. FITC = O=C1OC2(c3ccc(O)cc3Oc3cc(O)ccc32)c2ccc(NC(=S)*)cc21; DABSYL = CN(C)c1ccc(/N=N/c2ccc(S(=O)(=O)*)cc2)cc1

B1: {Lys(DABSYL)}QELAAIEWELAANERELAAIEGCFNKTFLDKFNHEAEDLFYQSSLARIAALKYKNAALK{LYS(FITC)} (peptide)
chain: K(DABSYL)QELAAIEWELAANERELAAIEGCFNKTFLDKFNHEAEDLFYQSSLARIAALKYKNAALKK(FITC)
B2: {Lys(DABSYL)}QELAAIEWELAANERELAAIEGCFNKTFLDKFNHEAEDLFYQSSLARIAALKYKNAALKKKIA{LYS(FITC)} (peptide)
chain: K(DABSYL)QELAAIEWELAANERELAAIEGCFNKTFLDKFNHEAEDLFYQSSLARIAALKYKNAALKKKIAK(FITC)
B3: {Lys(DABSYL)}QELAAIEWELAANERELAAIEGCFNKTFLDKFNHEAEDLFYQSSLARIAALKYKNAALKKKIAALKQ{LYS(FITC)} (peptide)
chain: K(DABSYL)QELAAIEWELAANERELAAIEGCFNKTFLDKFNHEAEDLFYQSSLARIAALKYKNAALKKKIAALKQK(FITC)

Target: L subunits (L1, L2, L3)
Test: Titration of R units against L subunits, fluorescence intensity after 2 hours
Format: binding
Conditions: R 400 nM to 100 pM against 50 nM L in 1×PBS, pH 7.4, 20-25° C., only rank order given
Experimental: Residual fluorescence can be due to remaining unreacted L subunits.
In FIG. 4B, R units (400 nM to 100 pM in 1×PBS, pH 7.4) are titrated against 50 nM of L subunits in 1×PBS, pH 7.4 at 20-25° C. and the fluorescence intensities measured after 2 hours. […] All the measurements were performed in triplicates (n=3) and the error bar represents the standard deviation of the data. Statistical analysis was performed using Unpaired t test in GraphPad software and the calculated P is represented as follows: **P<0.01.

Molecule | affinity of R subunits toward L subunits (Kd values), preferential order
B1 | RL3>RL1>RL2
B2 | RL3>RL1>RL2
B3 | RL3>RL1>RL2
